Where two headings read alike, the source gives them in different places.
Tests used:
[1] = tested on: beagle dogs; test: PK/PD after IH (powder inhalation) dosing in dogs (Example 26); conditions: for Effect/mg Dosed: AUEC per mg of IH lung dose; for Effect (Glucose Suppression AUEC): lung dose 0.34, 0.6, 2 mg
Procedure: (§1) The compounds were prepared in accordance with Examples 16 and 18.
(§2) 6 Beagle dogs (˜7-10 kg) were anesthetized in both the IV and IH arms of this study for consistency. Dogs were then given 0.1 mg/kg acepromazine subcutaneously ˜15 minutes prior to 1-5% isoflurane mask induction. Once the appropriate plane of anesthesia was achieved, the pre-shaved neck of the dog was installed with an 18-20 G Abbocath intravenous catheter in the right or left jugular vein and pre-dose sampling was taken. This catheter was used for all blood samplings other than the later time points (16, 20 and 24 hour). Subsequent samples were taken from the cephalic veins.
The formulated control and test articles were delivered by inhalation (IH) via an endotracheal (ET) tube. Ventilator stroke volume was set empirically for each dog to achieve a Peak Mouth Pressure (PMP) of 20-25 cm H2O. A digital manometer (Dwyer Instruments, Michigan City, Ind.) was connected to the ET tube/“Y” connector to monitor PMP. Each blister pack (BP) was delivered with 2 full breathing cycles. No more than 3 BPs were administered during one apneic period. If required to achieve the target administered dose, a second apneic period was induced after an interval of 2 minutes of spontaneous breathing.
Total administered powder as well as estimated inhaled total lung dose were reported.
(§3) Whole blood was used for the glucose measurements. EDTA-anticoagulated plasma was used for compound quantitation assays.
(§4) Quantitation of test and control articles for PK analysis was made with a radio-immuno assay (RIA) conducted at Linco Research, St-Charles, Mo. […] This antiserum was used as the basis of an RIA assay which was then qualified with respect to accuracy, precision, sensitivity, and dilutional linearity. The working range of this assay was 0.15-5 ng/ml. Samples exceeding the upper boundary of this range were diluted in a pool of charcoal-stripped canine plasma.
To calculate the overall glucose suppression, glucose levels were normalized by the equation:
GlucoseSuppression(t)=PredoseGlucoseConcentration−Glucose(t)
The glucose suppression-time profiles were integrated using linear-trapezoidal rule to calculate the area under the effect curve (AUEC).

[2] = tested on: beagle dogs; test: PK/PD after IV dosing in dogs (Example 26); conditions: for CMAX: baseline corrected
Procedure: as §1, §2
The test and control articles were administered by bolus intravenous (IV) injection of a volume of 300 μl into the left cephalic vein using a 22 G 1 inch 1 mL tuberculin syringe.
as §3, §4

[3] = 14.3/(14.3 + 0.2) * 100%
Procedure: Concentrations of collected samples were determined using UV spectroscopy, while the integrity analysis of the collected protein was evaluated by HPLC.

[4] = tested on: Sprague-Dawley rats; conditions: rats, intravenous
Description: The first phase established a dose of the compound required to achieve a target blood glucose reduction. This target blood glucose reduction was chosen to be the minimum reduction that is clearly recognizable as different from the resting blood glucose concentration.
The second phase examined the pharmacokinetics/pharmacodynamics of the molecule when administered to rats at the selected dose over an observation time sufficient for the glucose to return to baseline.
These experiments were conducted on male adult Sprague-Dawley rats of approximately 0.30-0.40 kg. Animals were obtained pre-cannulated with a jugular vein catheter (JVC) for blood sampling and, in the case of IV administration, and additional femoral vein catheter (FVC).
Intravenous administration of compounds was made via a femoral catheter in a volume of 300 μl.
Sample Collection was performed as follows. Blood samples of approximately 0.50 mL were collected from the JVC using a 1 mL syringe at each time point. A new syringe was used for each time point along with precautions to prevent contamination and carry-over.
The glucose monitoring was conducted as follows. Approximately 20 μL of whole blood was touched to the end of the glucose test strip of 2 Glucometer Elite glucose monitors for a duplicate determination of blood glucose concentrations. If there was a discrepancy of greater than 5 mg/dl, a third reading was taken.
The sample for compound quantitation in plasma, which served as basis for the PK analysis, was collected and processed as follows. The volume of blood remaining after the glucose measurement (˜480 μL) was anticoagulated with K2 EDTA and centrifuged to recover plasma. The plasma was collected and stored at −80° C. until analysis.

[5] = tested on: Sprague-Dawley rats; test: Dose determination and PK/PD after intratracheal instillation (Example 25); assay type: in vivo, rat; conditions: intratracheal
Procedure: A spectrometric measurement of compound concentration was also made.
Intratracheal Instillation (IT) was conducted as follows.
Sample Collection was performed as follows.
The glucose monitoring was conducted as follows.
The experimental protocol was modified for the analysis of the acetylated compounds. This resulted from the intent to use LC/MS-MS for the quantitation of compound concentrations in plasma. This analytical technique requires a larger volume of plasma to permit concentration of the sample and achieve the requisite increase in sensitivity. […] The protocol was therefore modified to increase the number of animals by two-fold and split the samples between these two cohorts.
To explore the data further, the PK profiles after IT doses were deconvoluted using IV PK parameters using the Wagner Nelson deconvolution procedure, to generate the cumulative absorption profile (FIG. 32).

[6] = Quick release test of releasable PEG-insulin conjugate; assay type: physicochemical; conditions: 100 mM HEPES, pH 8.66, 50° C., approximately 24 hours; gel electrophoresis
Procedure: The pH was adjusted to 8.66 with 11.0 μL 2 M NaOH. Incubated solution at 50° C. for approximately 24 hours. […] This is slightly lower than the theoretical content of 22.5%. […] Peptide mapping was performed to determine which residue on insulin was modified. […] The purity of the conjugate was 91% mono-conjugate as determined by reverse phase HPLC.

[7] = 100 mM acetic acid
[8] = tested on: beagle dogs; conditions: glucose clamp, powder inhalation (FIG. 13a)
Procedure: The glucose clamp technique involved the continuous infusion of a 50% glucose solution at a rate such that normal serum glucose values were maintained throughout the experiment (e.g., normal range is 80-100 mg/dl).
Glucagon was also infused to maintain normal serum physiologic concentrations. […] Blood was withdrawn from an indwelling catheter over a 10-hour period.

[9] = dog, in vivo, inhaled or intranasal
[10] = dogs, IV, insulin 0.027, 2K 0.058, 5K 0.084 mg/dog, mean

## di-N^αA1,N^εB29-(acetyl)-N^αB1-{3-[methoxy(ethoxy)5K]propionyl}insulin [PEG5000-B1 Di-acetylated insulin]
[1]; dog, in vivo
  T1/2: about 15 HR
  T1/2, range across dogs: 6.6 to 51 h
  TMAX: about 2.5 HR
  Tmax, range across dogs: 1 to 8 h
[1]; [9]
  T1/2: 15.045 h
  calculated IH bioavailability: about 36%
[1]; dogs, IH
  duration of glucose suppression versus Insulin: significantly increased
  Effect/mg Dosed: 179
  Effect (Glucose Suppression AUEC): 358
[2]; beagle, dog, in vivo, iv
  T1/2: 0.755 h
[2]; dog, in vivo, iv
  T1/2: about 0.76 HR
  TMAX: 4.8 min
  central volume of distribution (Vc): about 115 mL/kg
[2]; dogs, IV
  overall glucose suppression versus Insulin: overall glucose suppressions were similar in terms of maximum suppression and duration of action
[3]
  % Collected as aerosol: 98%^1
[4]; insulin mass
  dose adequate to reduce blood glucose to the target (40-60 mg/dl): 20 μg/rat
[4]; 20 μg/rat (5K di-acetylated), 10 μg/rat (2K di-acetylated)
  group mean Cmin (blood glucose nadir), definitive leg: 54 mg/dL
[5]; 520 μg/animal (Table 7)
  Cmin (minimum blood glucose concentration): 58 ± 11 mg/dL
  Tmin (time to Cmin): 7.1 ± 6.6 h
[5]; selected dose
  time up to which blood glucose is still suppressed (not back to baseline): at least 12 hrs

## G2-PEG2-FMOC-NHS 40K insulin: Example 21: releasable mono-conjugate of insulin with G2-PEG2-FMOC-NHS 40K, site specific (B1)
[6]
  release of insulin from the PEG: Complete release

## Insulin: unmodified human insulin used as control and starting material [reference compound]
[1]; dogs, IH, 0.34 mg/dog
  time of last quantifiable sample: 2 h
[1]; dogs, IH
  Effect/mg Dosed: 156
  Effect (Glucose Suppression AUEC): 53
[1]; dogs, IH, lung dose insulin 0.34, 2K 0.60, 5K 2.0 mg/dog, mean
  AUC0-LAST: 1.538 ng·h/mL
[1]; dogs, IH, lung dose insulin 0.34, 2K 0.60, 5K 2.0 mg/dog, mean, baseline corrected
  CMAX: 1.567 ng/mL
[1]; dogs, powder after the ET tube, relative to IV
  calculated IH bioavailability: about 6%
[2]; [10]
  AUC0-LAST: 1.822 ng·h/mL
  CMAX: 9.1 ng/mL
[2]; dogs, IV, insulin 0.027, 2K 0.058, 5K 0.084 mg/dog, mean, listed as INSULIN
  CMAX: 9.117 ng/mL
[7]; pH 4
  solubility: ~5000 µg/mL
[7]; pH 4, listed as insulin
  solubility: up to 5 mg/ml
[7]; pH 5
  solubility: less than 1 mg/ml
[8]
  duration for which glucose infusion was necessary: 300 min

Reference: patent publication US20110171312A1, “MODIFIED THERAPEUTIC PEPTIDES, METHODS OF THEIR PREPARATION AND USE” (Nektar Therapeutics, priority 2008, published 2011)
